Assay results taken from patent US20070048315A1.
Numbering of substitutions follows the chain as printed. “And” between values parts separate entries of the source, which are not always exact repeats. Equal values may be shown once.

B1: humanized anti-human IL-23p19 antibody hum7G10 (antibody, human IgG1, kappa, V domains shown)
VH: QVQLVQSGAEVKKPGASVKVSCKASGYTFTSNVMHWVRQAPGQGLEWMGYINPYNDGTKYNEKFKGRVTMTTDTSTSTAYMELRSLRSDDTAVYYCARNWDVAYWGQGTLVTVSS
VL: DIQMTQSPSSLSASVGDRVTITCRASQSISDYLHWYQQKPGKAPKLLIYYASQSISGVPSRFSGSGSGTDFTLTISSLQPEDFATYYCQNGHSFPFTFGQGTKVEIKR
B2: humanized anti-human IL-23p19 antibody hum6H12 (antibody, human IgG1, kappa, V domains shown)
VH: B1 VH with T30N, S31R, N32Y, V33L, M34I, Y54N, D56A, K59N, V102Q
VL: B1 VL with A51T

Key:
[1] = target: "N222Q" human IL-23 (elastikine sequence with Asn222 to Gln in the p40 subunit, expressed in SF9 cells) (human) (UniProt P29460); assay: BIAcore SPR, mAb amine-coupled on CM5 chip, IL-23 in solution, 25 C
[2] = target: "Bac-wt" human IL-23 (identical to elastikine human IL-23 in sequence, expressed in SF9 cells) (human) (UniProt P29460); assay: as above

Binder | Kd [1] | Kd [2] [nM]
B1 | 0.3 nM and 1 nM | 10
B2 | 0.5 nM | 5.1
